The text below walks through data of article PMC13381548.

This data set has as its system NX4-NS20-NX1 (X-NS20-X) (designed (from TALE PthXo1)). Briefly: BLI. The following applies: BLI: 25 mM Tris (pH 7 for NS20, pH 8 for NS14), 150 mM NaCl, 10 mM MgCl2, 0.5% BSA, 0.5% Tween-20, 25 C, EMSA: 1% agarose, 1x TAE, 110 V. On the technique in general: A gel shift assay detects complexes by their altered migration in electrophoresis.

By Kd is commonly meant the constant that tells how readily two partners part at equilibrium. “AAAAAAATCAGACCGACATCTAATCCGCAACGA (double strand) [X-NS20-X random]”: the Kd (10 mM MgCl2, stated weak interactions, Kd > ~700 nM) was above 700 nM.
Turning to “AAAAAAATCTAGCAACCTCAAACAGACACCAGA (double strand) [X-NS20-X target]”, the Kd was found to be 45 nM.
